Among the data in publication PMC5697884, “In vitro characterization of the antivirulence target of Gram-positive pathogens, peptidoglycan O-acetyltransferase A (OatA)” (PLoS Pathogens, 2017) are Km and kcat values, retold here.

The test system of this data set is CC(=O)Oc1ccc([N+](=O)[O-])cc1. Kind of data set: purified protein. To be noted: hydrolysis (esterase) without acceptor, 50 mM sodium phosphate pH 6.5, 5% (v/v) ethanol, 25 °C.

“SaOatAC (Staphylococcus aureus subsp. aureus NCTC 8325)”: the Michaelis-Menten constant (Km) stood at 1150 ± 70 µM and the kcat was 0.060 ± 0.00078 s⁻¹.

In the case of SpOatAC (Streptococcus pneumoniae R6), the Km came out at 56 ± 6.5 µM and the kcat came to 0.016 ± 0.00039 s⁻¹.

A word on the Km: it is the substrate concentration at which the rate is half of its maximum. As a reminder, the kcat is the number of substrate molecules converted per active site and unit of time at saturation.
